This is an account of results in patent publication US20070259417A1 (published 2007).

Test [1] has as its target trypsin (UniProt P00760). Briefly: pfu acid eluted from trypsin beads.
In test [2] the target is agarose-immobilized anhydro-trypsin (UniProt P00760). Briefly: pfu acid eluted from anhydrotrypsin beads, experiment 2.
The target of test [3] is trypsin (UniProt P00760). Kind of test: pfu eluted from trypsin beads.
Test [4] addresses agarose-immobilized anhydro-trypsin (UniProt P00760). Briefly: pfu eluted from anhydrotrypsin beads.
For test [5] the target is unchanged. Briefly: pfu acid eluted from anhydrotrypsin beads, experiment 1.
Test [6] addresses T1, human neutrophil elastase (human, UniProt P08246 30-247).
T1 construct: also called HNE; immobilized HNE
T1 sequence (looked up): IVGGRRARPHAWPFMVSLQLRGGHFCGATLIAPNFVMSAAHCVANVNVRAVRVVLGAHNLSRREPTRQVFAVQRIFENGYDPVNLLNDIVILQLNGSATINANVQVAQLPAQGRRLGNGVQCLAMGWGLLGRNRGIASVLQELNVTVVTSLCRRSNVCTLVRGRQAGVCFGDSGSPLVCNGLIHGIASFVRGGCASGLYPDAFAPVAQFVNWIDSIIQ
Briefly: pfu acid eluted from HNE beads.

The target of test [7] is agarose-immobilized anhydro-trypsin (UniProt P00760). Kind of test: phage titer after incubation with anhydrotrypsin beads.
Test [8] shares this target. Briefly: dot blot of phage eluted at pH 2.2 from 2 ul immobilized anhydro-trypsin.
Test [9] addresses trypsin (UniProt P00760). Kind of test: pH 2.2 eluate from immobilized active trypsin, bound in TBS pH 7.5.
In test [10] the target is agarose-immobilized anhydro-trypsin (UniProt P00760). Briefly: titer after 2 h with 2 ul immobilized anhydro-trypsin.
Test [11] deals with agarose-immobilized streptavidin (UniProt P22629). Kind of test: titer after 4 h with 5 ul immobilized streptavidin.
Test [12] deals with agarose-immobilized anhydro-trypsin (UniProt P00760). Briefly: titer after 1 h with 5 ul immobilized anhydro-trypsin.
Test [13] has the same target. Kind of test: titer after 2 h with 10 ul immobilized anhydro-trypsin.
Test [14] has the same target. Briefly: titer after 2 h with 5 ul immobilized anhydro-trypsin.
Test [15] shares this target. Briefly: dot blot of phage eluted at pH 2.2 from 5 ul immobilized anhydro-trypsin.
The target in test [16] is trypsin (UniProt P00760). Briefly: pH 2.2 eluate from immobilized active trypsin, bound in CBS pH 6.5.
Test [17] concerns the target agarose-immobilized anhydro-trypsin (UniProt P00760). Kind of test: titer after 4 h with 10 ul immobilized anhydro-trypsin.
Test [18] has as its target agarose-immobilized streptavidin (UniProt P22629). Kind of test: titer after 2 h with 5 ul immobilized streptavidin.
For test [19] the target is unchanged. Kind of test: titer after 1 h with 5 ul immobilized streptavidin.
Test [20] addresses agarose-immobilized anhydro-trypsin (UniProt P00760). Kind of test: titer after 1 h with 2 ul immobilized anhydro-trypsin.
The target of test [21] is agarose-immobilized streptavidin (UniProt P22629). Kind of test: dot blot of phage eluted at pH 2.2 from 5 ul immobilized streptavidin.
Test [22] has as its target agarose-immobilized anhydro-trypsin (UniProt P00760). Kind of test: titer after 4 h with 2 ul immobilized anhydro-trypsin.
The target is the same in test [23]. Briefly: titer after 4 h with 5 ul immobilized anhydro-trypsin.
The target is the same in test [24]. Kind of test: dot blot of phage eluted at pH 2.2 from 10 ul immobilized anhydro-trypsin.
The target is the same in test [25]. Kind of test: titer after 1 h with 10 ul immobilized anhydro-trypsin.
For test [26], the target named is M13mp18 phage. Briefly: titer of M13MP18 after normal rabbit IgG.
For test [27], the target named is M13mp18 phage. Kind of test: titer of M13MP18 after normal rabbit IgG and protein A beads.
The target of test [28] is T1, human neutrophil elastase. Briefly: extended pH elution from HNE beads.
Experimental: To test if phage displaying the ITI-DI-III fusion protein interact strongly with the proteases human neutrophil elastase (HNE) or cathepsin-G, aliquots of display phage were incubated with agarose-immobilized HNE or cathepsin-G beads (HNE beads or Cat-G beads, respectively). […] The procession in lowering pH during the elution was: pH 7.0, 6.0, 5.5, 5.0, 4.5, 4.0, 3.5, 3.0, 2.5, and 2.0. Following elution and neutralization, the various input, wash, and pH elution fractions were titered.
Test [29] addresses T1, human neutrophil elastase. Kind of test: abbreviated pH elution from HNE beads. The method, then:
(§1) To test if the changes at positions 15, 16, 18, and 19 of the ITI-DI-III fusion protein influence binding of display phage to HNE beads, abbreviated pH elution profiles were measured. […] The beads were washed and phage were eluted as described (Example III), except that only three pH elutions were performed: pH 7.0, 3.5, and 2.0.

The target in test [30] is T1, human neutrophil elastase. Kind of test: HNE beads, abbreviated elution, pH 3.5. The protocol:
as §1

For test [31], the target named is human Cathepsin G (human) (UniProt P08311). Kind of test: Cat-G beads, pH 3.0 eluate.
For test [32], the target named is T1, human neutrophil elastase. Kind of test: HNE beads, abbreviated elution, pH 7.0. The method, then: as §1
Test [33] has as its target human Cathepsin G (human) (UniProt P08311). Kind of test: Cat-G beads, pH 3.5 eluate.
Test [34] shares this target. Kind of test: Cat-G beads, pH 5.0 eluate.
Test [35] has the same target. Briefly: Cat-G beads, pH 6.0 eluate.
Test [36] has the same target. Briefly: Cat-G beads, pH 5.5 eluate.
For test [37] the target is unchanged. Kind of test: Cat-G beads, pH 4.0 eluate.
Test [38] has as its target T1, human neutrophil elastase. Kind of test: HNE beads, abbreviated elution, SUM of pH fractions. The protocol:
as §1

The target in test [39] is human Cathepsin G (human) (UniProt P08311). Kind of test: Cat-G beads, pH 2.0 eluate.
For test [40] the target is unchanged. Kind of test: Cat-G beads, pH 2.5 eluate.
Test [41] has the same target. Briefly: Cat-G beads, pH 7.0 eluate.
Test [42] shares this target. Kind of test: Cat-G beads, pH 4.5 eluate.
The target in test [43] is T1, human neutrophil elastase. Briefly: HNE beads, abbreviated elution, pH 2.0. The protocol: as §1
Test [44] has as its target human Cathepsin G (human) (UniProt P08311). Briefly: Cat-G beads, SUM of all pH elution fractions.

Ends that are not written are not given here.

Sequence of agarose-immobilized streptavidin (P22629 37-163 limits assumed): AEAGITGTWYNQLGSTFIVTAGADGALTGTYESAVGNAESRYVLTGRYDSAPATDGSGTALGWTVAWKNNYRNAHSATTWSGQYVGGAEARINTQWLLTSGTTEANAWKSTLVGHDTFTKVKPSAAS
Sequence of human Cathepsin G (human) (P08311 21-244 limits assumed): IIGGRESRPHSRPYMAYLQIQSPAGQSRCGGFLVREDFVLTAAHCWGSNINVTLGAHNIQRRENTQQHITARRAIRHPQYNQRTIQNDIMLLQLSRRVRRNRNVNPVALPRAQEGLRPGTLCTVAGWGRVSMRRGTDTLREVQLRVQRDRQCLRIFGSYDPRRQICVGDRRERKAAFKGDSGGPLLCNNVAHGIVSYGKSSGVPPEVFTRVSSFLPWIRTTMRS
Sequence of agarose-immobilized anhydro-trypsin (P00760 24-246): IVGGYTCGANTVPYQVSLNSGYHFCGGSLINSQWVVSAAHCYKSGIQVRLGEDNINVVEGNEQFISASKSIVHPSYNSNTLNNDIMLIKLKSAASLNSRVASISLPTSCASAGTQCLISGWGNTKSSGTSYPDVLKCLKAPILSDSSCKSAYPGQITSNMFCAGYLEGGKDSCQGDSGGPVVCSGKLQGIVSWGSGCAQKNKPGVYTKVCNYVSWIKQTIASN
Sequence of trypsin (P00760 24-246): as above

On to M13mp18 phage, for which the binding relative to M13MP18 in [1], in [2], in test [3], in test [4], in test [5] and in [6] was 1 fold each time. Moreover, the eluted phage, percent of input in test [1] was determined as 0.0005%; in test [2] it was 0.3%; in [3], 0.00023%; in [4], 0.1%; in [5], 0.2%; in test [6] it was 0.0003%. For the same molecule, in test [7], the pfu after incubation as percent of input came out at 121%.
Take MK phage: the percent of total phage recovered in elution buffer in [8], in test [15], in [21] and in test [24] was < 1% each time. The percent of input phage in [9] was determined as 0.00034%; in test [16], 0.00028%. Moreover, the total pfu recovered in elution buffer in test [9] was determined as 1.48e+06 pfu; in [16] it was 1.35e+06 pfu. Besides, the percent residual titer in test [10] is 103%; in [11], 98%; in test [12], 110%; in test [13], 93%; in test [14], 111%; in test [17], 106%. The percent residual titer was 96% in [18]; 106% in test [19]; 97% in test [20]; 95% in test [22]; 96% in test [23]; 99% in [25].
Regarding “normal rabbit IgG / normal rabbit serum (antibody)”, the percent of input phage (pfu) is 104% in test [26] and 88% in test [27].

B1: MA-ITI-E7 phage (designed binder)
chain: KEDSCQLGYSAGPCVAMFPRYFYNGTSMACETFQYGGCMGNGNNFVTEKECLQTCR
modifications: not fully specified; cysteine pairing not given here
notes: two phage strains (1 and 2) of the same construct were tested; also called MA-ITI-E7 1; MA-ITI-E7 2; not shown: The join to the display carrier
For B1, the “fold lower total fraction of input eluted than EpiNE-7 phage” value in test [28] was ~40 fold. In [29], the “fold greater total fraction of input eluted than MA-ITI phage” value was 10 fold and the “fold lower total fraction of input eluted than EpiNE-7 phage” value was determined as 40 fold. In [30], the fraction of input is 8e-05.

B2: MA-ITI phage (other, human, UniProt P02760 227-281, looked up)
chain: KEDSCQLGYSAGPCMGMTSRYFYNGTSMACETFQYGGCMGNGNNFVTEKECLQTC
notes: residue range counts on the mature ITI light chain (UTI), not on the AMBP precursor entry; also called MA-ITI 2; MA-ITT; not shown: M13 gene III protein, mature
As to B2, the fraction of input turned out to be 7.8e-07 in [31]; 1e-05 in [32]; 9.6e-07 in test [33]; 2.4e-06 in test [34]; 5e-06 in [35]; 2.6e-06 in test [36]. Besides, the fraction of input was 9.6e-07 in [37]; 1.4e-05 in [38]; 7e-07 in [39]; 5.9e-07 in test [40]; 1.3e-05 in test [41]; 1.5e-06 in test [42]. Further, the fraction of input in [43] was 1e-06; in [30], 3e-06; in test [44] it was 3e-05. Besides, the total pfu in sample in test [31] turned out to be 360000 pfu; in [33] it was 440000 pfu; in test [34], 1.1e+06 pfu; in [35], 2.3e+06 pfu; in [36], 1.2e+06 pfu; in test [37] it was 440000 pfu. Also, the total pfu in sample in test [39] worked out at 320000 pfu; in [40] it was 270000 pfu; in test [41], 6.1e+06 pfu; in [42] it was 670000 pfu; in test [44], 1.4e+07 pfu.
